Source: the supplement of paper PMC10567573

B1: ANKRD17 (parent)
chain: EMVRFLLEAGADQEHKTDEMHTAL

Variants of: B1
Experiment: protein stability index of a GFP-peptide fusion (GPS, HEK-293T) (PSI 1-6); higher = more stable
Conditions: c terminus: a fixed tail appended
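Further: lentivirally expressed fusions sorted by FACS into six bins by GFP to DsRed ratio, PSI derived from sequencing read proportions per bin multiplied by bin number.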

Compared with M2D, M2E is lower in protein stability index: 5.29 for the first, 4.73 for the second.

First: M2F
Second: M2G
The protein stability index of the first is lower: 1.97 for the first, 4.74 for the second.

First: M2H
Second: M2I
The protein stability index of the first is higher: 4.21 for the first, 1.93 for the second.

First: M2K
Second: M2L
The protein stability index of the first is higher: 4.64 for the first, 1.95 for the second.

First: M2N
Second: M2P
The protein stability index of the first is higher: 5.32 for the first, 4.75 for the second.

Going from M2Q to M2R, the protein stability index falls from 4.64 to 4.21.

First: M2S
Second: M2T
The protein stability index of the first is higher: 4.63 for the first, 4.4 for the second.

First: M2V
Second: M2W
The protein stability index of the first is higher: 2.73 for the first, 2.5 for the second.

Compared with M2Y, V3A is higher in protein stability index: 2.81 for the first, 4.03 for the second.

Going from V3C to V3D, the protein stability index rises from 3.84 to 5.21.

First: V3E
Second: V3F
The protein stability index of the first is higher: 5.24 for the first, 2.97 for the second.

Compared with V3G, V3H is lower in protein stability index: 4.81 for the first, 4.55 for the second.

First: V3I
Second: V3K
The protein stability index of the first is lower: 3.11 for the first, 4.2 for the second.

Compared with V3L, V3M is higher in protein stability index: 2.62 for the first, 2.87 for the second.

Compared with V3N, V3P is higher in protein stability index: 4.47 for the first, 4.83 for the second.

Going from V3Q to V3R, the protein stability index rises from 4.44 to 4.56.

Compared with V3S, V3T is lower in protein stability index: 4.82 for the first, 4.51 for the second.

Compared with V3W, V3Y is higher in protein stability index: 2.65 for the first, 3.02 for the second.

Going from R4A to R4C, the protein stability index rises from 2.99 to 3.14.

Going from R4D to R4E, the protein stability index falls from 4.17 to 3.47.

First: R4F
Second: R4G
The protein stability index of the first is lower: 2.77 for the first, 3.86 for the second.

Compared with R4H, R4I is lower in protein stability index: 3.2 for the first, 2.19 for the second.

Compared with R4K, R4L is lower in protein stability index: 3.22 for the first, 2.35 for the second.

Going from R4M to R4N, the protein stability index rises from 2.46 to 3.22.

First: R4P
Second: R4Q
The protein stability index of the first is higher: 4.8 for the first, 3.61 for the second.

First: R4S
Second: R4T
The protein stability index of the first is higher: 3.64 for the first, 3.22 for the second.

Going from R4V to R4W, the protein stability index falls from 2.65 to 2.08.

First: R4Y
Second: F5A
The protein stability index of the first is lower: 2.35 for the first, 3.9 for the second.

Compared with F5C, F5D is higher in protein stability index: 3.77 for the first, 4.92 for the second.

First: F5E
Second: F5G
The protein stability index of the first is higher: 4.71 for the first, 4.11 for the second.

Compared with F5H, F5I is lower in protein stability index: 3.48 for the first, 2.88 for the second.

Going from F5K to F5L, the protein stability index falls from 4.33 to 2.56.

Going from F5M to F5N, the protein stability index rises from 2.87 to 4.29.

Going from F5P to F5Q, the protein stability index falls from 4.91 to 4.22.

First: F5R
Second: F5S
The protein stability index of the first is lower: 3.77 for the first, 4.56 for the second.

Compared with F5T, F5V is lower in protein stability index: 4.38 for the first, 3.7 for the second.

First: F5W
Second: F5Y
The protein stability index of the first is higher: 2.26 for the first, 2.25 for the second.

First: L6A
Second: L6C
The protein stability index of the first is higher: 4.45 for the first, 4.22 for the second.

First: L6D
Second: L6E
The protein stability index of the first is higher: 5.47 for the first, 5.28 for the second.

Going from L6F to L6G, the protein stability index rises from 3.08 to 4.95.

Going from L6H to L6I, the protein stability index falls from 4.42 to 2.63.

Compared with L6K, L6M is lower in protein stability index: 4.7 for the first, 3.75 for the second.

Going from L6N to L6P, the protein stability index rises from 4.55 to 5.04.

First: L6Q
Second: L6R
The protein stability index of the first is higher: 4.75 for the first, 4.55 for the second.

Going from L6S to L6T, the protein stability index falls from 4.69 to 4.62.

Compared with L6V, L6W is lower in protein stability index: 3.51 for the first, 3.25 for the second.

Compared with L6Y, L7A is higher in protein stability index: 3.81 for the first, 4.08 for the second.

First: L7C
Second: L7D
The protein stability index of the first is lower: 3.56 for the first, 5.07 for the second.

First: L7E
Second: L7F
The protein stability index of the first is higher: 4.79 for the first, 3.31 for the second.

First: L7G
Second: L7H
The protein stability index of the first is higher: 4.76 for the first, 4.27 for the second.

Going from L7I to L7K, the protein stability index rises from 3.31 to 3.7.

Going from L7M to L7N, the protein stability index rises from 3.4 to 3.72.

Going from L7P to L7Q, the protein stability index falls from 4.99 to 4.04.

Compared with L7R, L7S is lower in protein stability index: 4.13 for the first, 3.95 for the second.

First: L7T
Second: L7V
The protein stability index of the first is higher: 3.99 for the first, 3.64 for the second.

Compared with L7W, L7Y is lower in protein stability index: 3.26 for the first, 3.17 for the second.

Compared with E8A, E8C is lower in protein stability index: 2.15 for the first, 2.14 for the second.

Going from E8D to E8F, the protein stability index falls from 2.72 to 1.94.

First: E8G
Second: E8H
The protein stability index of the first is lower: 2.08 for the first, 2.43 for the second.

Compared with E8I, E8K is higher in protein stability index: 2.07 for the first, 2.71 for the second.

Compared with E8L, E8M is higher in protein stability index: 2.52 for the first, 2.62 for the second.

Compared with E8N, E8P is higher in protein stability index: 2.48 for the first, 3.11 for the second.

First: E8Q
Second: E8R
The protein stability index of the first is higher: 2.67 for the first, 2.03 for the second.

Compared with E8S, E8T is higher in protein stability index: 2.62 for the first, 2.63 for the second.

First: E8V
Second: E8W
The protein stability index of the first is higher: 1.89 for the first, 1.19 for the second.

First: E8Y
Second: A9C
The protein stability index of the first is lower: 1.78 for the first, 2.62 for the second.

Going from A9D to A9E, the protein stability index rises from 3.09 to 3.44.

Going from A9F to A9G, the protein stability index rises from 2.32 to 2.8.

Going from A9H to A9I, the protein stability index falls from 2.58 to 1.98.

Compared with A9K, A9L is lower in protein stability index: 3.05 for the first, 2.59 for the second.

Compared with A9M, A9N is higher in protein stability index: 2.22 for the first, 2.92 for the second.

First: A9P
Second: A9Q
The protein stability index of the first is higher: 3.08 for the first, 2.78 for the second.

First: A9R
Second: A9S
The protein stability index of the first is lower: 2.03 for the first, 2.96 for the second.

First: A9T
Second: A9V
The protein stability index of the first is higher: 3.04 for the first, 2.29 for the second.

Compared with A9W, A9Y is higher in protein stability index: 1.89 for the first, 2.54 for the second.

Compared with G10A, G10C is lower in protein stability index: 2.76 for the first, 2.13 for the second.

First: G10D
Second: G10E
The protein stability index of the first is lower: 3.13 for the first, 3.32 for the second.

Going from G10F to G10H, the protein stability index rises from 2.18 to 2.57.

Going from G10I to G10K, the protein stability index rises from 1.98 to 2.57.

Going from G10L to G10M, the protein stability index rises from 1.95 to 2.05.

Compared with G10N, G10P is higher in protein stability index: 2.82 for the first, 3.73 for the second.

First: G10Q
Second: G10R
The protein stability index of the first is higher: 2.57 for the first, 1.67 for the second.

First: G10S
Second: G10T
The protein stability index of the first is lower: 2.03 for the first, 2.27 for the second.

In the case of G10V, the protein stability index is reported as 2.07.
